Measurements from publication PMC3476724 (Biochemistry, 2012).

Columns and labels:
[1] = target: CXCR4 (Homo sapiens, UniProt P61073); assay: Intracellular calcium mobilization in Sup T1 cells; type: cell-based; conditions: 50 nM, Sup T1 cells expressing CXCR4, fura-2; representative of at least three independent experiments
[2] = target: CXCR4 mutant F292A (human) (UniProt P61073); assay: 12G5 antibody competition binding on cells
[3] = target: chemokine receptor CXCR4, wild type (human) (UniProt P61073); assay: 12G5 antibody competition binding on cells
[4] = target: CXCR4 mutant Y255A (human) (UniProt P61073); assay: 12G5 antibody competition binding on cells
[5] = target: CXCR4 mutant Y121A (human) (UniProt P61073); assay: 12G5 antibody competition binding on cells
[6] = target: CXCR4 mutant F87A (human) (UniProt P61073); assay: 12G5 antibody competition binding on cells
[7] = target: CXCR4 mutant E288D (human) (UniProt P61073); assay: 12G5 antibody competition binding on cells
[8] = target: CXCR4 mutant Y45A (human) (UniProt P61073); assay: 12G5 antibody competition binding on cells
[9] = target: CXCR4 mutant DNX4 (human) (UniProt P61073); assay: 12G5 antibody competition binding on cells
[10] = target: CXCR4 mutant W252A (human) (UniProt P61073); assay: 12G5 antibody competition binding on cells
[11] = target: CXCR4 mutant D171A (human) (UniProt P61073); assay: 12G5 antibody competition binding on cells

Row | Substance | Mobilization of calcium (Ca2+) [1] | decrease of binding against wild-type CXCR4 [2] [%] | IC50 [3] [nM] | decrease of binding against wild-type CXCR4 [4] [%] | decrease of binding against wild-type CXCR4 [5] [%] | decrease of binding against wild-type CXCR4 [6] [%] | decrease of binding against wild-type CXCR4 [7] [%] | decrease of binding against wild-type CXCR4 [8] [%] | increase of % bound 12G5 against wild-type CXCR4 [9] [%] | decrease of binding against wild-type CXCR4 [10] [%] | decrease of binding against wild-type CXCR4 [11] [%]
1 | stromal cell-derived factor-1α [SDF-1α] | rapid Ca^2+ mobilization | – | – | – | – | – | – | – | – | – | –
2 | DV1 dimer (peptide) | – | 20 | 3 | 20 | 20 | 40 | 40 | 20 | 15 | 20 | 60
